Results: patent US20110318356A1 (Novo Nordisk, published 2011)
Numbering of substitutions follows the chain as printed. Names may count otherwise.

B1: HzTFPI4F36-CDRgrafted (initial CDR grafted version of humanized TFPI4F36) (antibody, human IgG4 S228P, kappa)
heavy: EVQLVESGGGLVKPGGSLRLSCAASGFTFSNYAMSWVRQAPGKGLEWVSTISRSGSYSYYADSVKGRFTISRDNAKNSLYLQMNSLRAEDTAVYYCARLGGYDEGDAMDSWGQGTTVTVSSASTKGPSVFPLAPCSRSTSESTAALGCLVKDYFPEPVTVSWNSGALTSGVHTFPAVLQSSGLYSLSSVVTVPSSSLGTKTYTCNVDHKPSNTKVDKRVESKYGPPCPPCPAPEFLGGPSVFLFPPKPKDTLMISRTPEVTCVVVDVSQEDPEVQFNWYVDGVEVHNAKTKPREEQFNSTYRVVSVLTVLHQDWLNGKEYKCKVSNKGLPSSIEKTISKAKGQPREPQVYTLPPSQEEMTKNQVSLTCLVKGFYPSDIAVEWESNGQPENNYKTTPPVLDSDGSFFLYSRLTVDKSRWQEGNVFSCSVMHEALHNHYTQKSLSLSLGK
light: DIVMTQTPLSLSVTPGQPASISCKSSQSLLESDGKTYLNWYLQKPGQSPQLLIYLVSILDSGVPDRFSGSGSGTDFTLKISRVEAEDVGVYYCLQATHFPQTFGGGTKVEIKRTVAAPSVFIFPPSDEQLKSGTASVVCLLNNFYPREAKVQWKVDNALQSGNSQESVTEQDSKDSTYSLSSTLTLSKADYEKHKVYACEVTHQGLSSPVTKSFNRGEC
notes: human kappa/IgG4(S241P); also called hz4F36CDRgraft
B2: HzTFPI4F36 (mAbTFPI2021) humanized monoclonal antibody (antibody, human IgG4 S228P, kappa, V domains shown)
VH: EVQLVESGGGLVKPGGSLRLSCAASGFTFSNYAMSWVRQTPEKRLEWVATISRSGSYSYFPDSVQGRFTISRDNAKNSLYLQMNSLRAEDTAVYYCARLGGYDEGDAMDSWGQGTTVTVSS
VL: DIVMTQTPLSLSVTPGQPASISCKSSQSLLESDGKTYLNWYLQKPGQSPQLLIYLVSILDSGVPDRFSGSGSGTDFTLKISRVEAEDVGVYYCLQATHFPQTFGGGTKVEIKR
notes: human kappa/IgG4(S241P); also called mAb2021; mAbTFPI4F36
B3: MuTFPI4F36 (TFPI-4F36A1B2) murine monoclonal antibody (antibody, mouse IgG1, kappa, V domains shown)
VH: B2 VH with Q3E, R19K, S78T, N84S, A88S, V93M, A97T, T116S
VL: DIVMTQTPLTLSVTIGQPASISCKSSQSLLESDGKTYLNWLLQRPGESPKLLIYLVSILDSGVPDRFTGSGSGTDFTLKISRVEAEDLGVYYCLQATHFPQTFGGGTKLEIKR
notes: murine kappa / IgG1; also called anti-TFPI4F36A1B2; Murine TFPI4F36
B4: HzTFPI4F36 HC-G42E, G44R, A60P, K64Q (antibody, human IgG4 S228P, kappa, name in Kabat numbering, V domains shown)
VH: B2 VH with T40A, A49S, F60Y
VL: B2 VL
notes: Mutated CDR-grafted heavy chain with wild type CDR-grafted light chain; Kabat numbering; also called HzTFPI4F36 G42E, G44R, A60P, K64Q
B5: HzTFPI4F36 HC-G42E, G44R, CDR2 (antibody, human IgG4 S228P, kappa, name in Kabat numbering, V domains shown)
VH: B2 VH with T40A, A49S
VL: B2 VL
notes: Mutated CDR-grafted heavy chain with wild type CDR-grafted light chain; Kabat numbering; also called HzTFPI4F36 G42E, G44R, Y59F, A60P, K64Q
B6: HzTFPI4F36 LC-FR2 (antibody, human IgG4 S228P, kappa, name in Kabat numbering)
heavy: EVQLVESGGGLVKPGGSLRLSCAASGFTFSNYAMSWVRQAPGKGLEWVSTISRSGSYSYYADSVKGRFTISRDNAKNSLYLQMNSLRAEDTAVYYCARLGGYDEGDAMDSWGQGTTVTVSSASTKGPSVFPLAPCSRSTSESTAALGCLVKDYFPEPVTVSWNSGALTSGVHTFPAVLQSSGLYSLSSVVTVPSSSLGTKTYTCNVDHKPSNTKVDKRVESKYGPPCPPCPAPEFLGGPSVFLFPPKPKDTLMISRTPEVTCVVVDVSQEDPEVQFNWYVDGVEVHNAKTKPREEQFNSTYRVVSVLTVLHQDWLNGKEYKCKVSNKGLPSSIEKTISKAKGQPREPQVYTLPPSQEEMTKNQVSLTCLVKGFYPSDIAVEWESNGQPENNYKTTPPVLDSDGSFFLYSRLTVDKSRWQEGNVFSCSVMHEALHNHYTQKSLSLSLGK
light: B1 light with Y41L, K44R, Q47E, Q50K
notes: Mutated CDR-grafted light chain with wild type CDR-grafted heavy chain; Kabat numbering; also called patch mutant in LC FR2
B7: HzTFPI4F36 LC-K39R, Q42E, Q45K (antibody, human IgG4 S228P, kappa, name in Kabat numbering, V domains shown)
VH: B2 VH with T40A, E42G, R44G, A49S, F60Y, P61A, Q65K
VL: B2 VL with K44R, Q47E, Q50K
notes: Mutated CDR-grafted light chain with wild type CDR-grafted heavy chain; Kabat numbering
B8: HzTFPI4F36 LC-P15I (antibody, human IgG4 S228P, kappa, name in Kabat numbering)
heavy: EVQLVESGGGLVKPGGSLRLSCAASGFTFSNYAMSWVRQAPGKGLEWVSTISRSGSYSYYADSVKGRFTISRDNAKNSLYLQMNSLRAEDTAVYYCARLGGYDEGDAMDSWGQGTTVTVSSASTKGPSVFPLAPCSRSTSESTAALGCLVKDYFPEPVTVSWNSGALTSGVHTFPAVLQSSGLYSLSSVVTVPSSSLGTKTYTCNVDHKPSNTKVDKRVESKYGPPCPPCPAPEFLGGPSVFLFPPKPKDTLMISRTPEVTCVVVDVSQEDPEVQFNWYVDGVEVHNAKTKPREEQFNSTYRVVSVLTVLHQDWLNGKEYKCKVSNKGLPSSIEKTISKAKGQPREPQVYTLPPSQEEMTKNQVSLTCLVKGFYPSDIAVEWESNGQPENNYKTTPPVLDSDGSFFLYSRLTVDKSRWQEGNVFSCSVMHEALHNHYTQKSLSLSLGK
light: B1 light with P15I
notes: as for B7
B9: HzTFPI4F36 LC-P15I, FR2 (antibody, human IgG4 S228P, kappa, name in Kabat numbering)
heavy: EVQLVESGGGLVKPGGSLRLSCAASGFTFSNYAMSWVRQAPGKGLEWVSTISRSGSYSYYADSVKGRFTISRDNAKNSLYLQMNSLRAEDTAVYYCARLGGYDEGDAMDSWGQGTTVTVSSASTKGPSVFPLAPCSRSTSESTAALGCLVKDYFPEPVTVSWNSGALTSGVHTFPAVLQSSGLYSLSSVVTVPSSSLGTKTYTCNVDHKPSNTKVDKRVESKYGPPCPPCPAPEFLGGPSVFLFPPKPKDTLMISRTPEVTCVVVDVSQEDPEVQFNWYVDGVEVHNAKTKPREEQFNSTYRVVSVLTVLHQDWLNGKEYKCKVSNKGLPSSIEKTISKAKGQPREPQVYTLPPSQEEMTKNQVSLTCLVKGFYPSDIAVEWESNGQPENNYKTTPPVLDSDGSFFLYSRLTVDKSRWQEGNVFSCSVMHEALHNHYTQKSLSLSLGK
light: B1 light with P15I, Y41L, K44R, Q47E, Q50K
notes: as for B7
B10: HzTFPI4F36 LC-S63T (antibody, human IgG4 S228P, kappa, name in Kabat numbering, V domains shown)
VH: B2 VH with T40A, E42G, R44G, A49S, F60Y, P61A, Q65K
VL: B2 VL with S68T
notes: Mutated CDR-grafted light chain with wild type CDR-grafted heavy chain; human kappa/IgG4(S241P)
B11: HzTFPI4F36 LC-Y36L (antibody, human IgG4 S228P, kappa, name in Kabat numbering, V domains shown)
VH: B2 VH with T40A, E42G, R44G, A49S, F60Y, P61A, Q65K
VL: B2 VL with Y41L
notes: as for B7
B12: HzTFPI4F36 HC-A60P (antibody, human IgG4 S228P, kappa, name in Kabat numbering, V domains shown)
VH: B2 VH with T40A, E42G, R44G, A49S, F60Y, Q65K
VL: B2 VL
notes: Mutated CDR-grafted heavy chain with wild type CDR-grafted light chain; Kabat numbering
B13: HzTFPI4F36 HC-A93T (antibody, human IgG4 S228P, kappa, name in Kabat numbering, V domains shown)
VH: B2 VH with T40A, E42G, R44G, A49S, F60Y, P61A, Q65K, A97T
VL: B2 VL
notes: as for B12
B14: HzTFPI4F36 HC-FR2 (antibody, human IgG4 S228P, kappa, name in Kabat numbering, V domains shown)
VH: B2 VH with A49S, F60Y, P61A, Q65K
VL: B2 VL
notes: Mutated CDR-grafted heavy chain with wild type CDR-grafted light chain; Kabat numbering; also called patch mutant in HC FR2
B15: HzTFPI4F36 HC-FR2, CDR2 (antibody, human IgG4 S228P, kappa, name in Kabat numbering, V domains shown)
VH: B2 VH with A49S
VL: B2 VL
notes: as for B12
B16: HzTFPI4F36 HC-FR2, S49A (antibody, human IgG4 S228P, kappa, name in Kabat numbering, V domains shown)
VH: B2 VH with F60Y, P61A, Q65K
VL: B2 VL
notes: as for B12
B17: HzTFPI4F36 HC-FR3 (antibody, human IgG4 S228P, kappa, name in Kabat numbering, V domains shown)
VH: B2 VH with T40A, E42G, R44G, A49S, F60Y, P61A, Q65K, N84S, A88S, V93M
VL: B2 VL
notes: as for B12
B18: HzTFPI4F36 HC-FR3, A93T (antibody, human IgG4 S228P, kappa, name in Kabat numbering, V domains shown)
VH: EVQLVESGGGLVKPGGSLRLSCAASGFTFSNYAMSWVRQAPGKGLEWVSTISRSGSYSYYADSVKGRFTISRDNAKNSLYLQMSSLRSEDTAMYYCTRLGGYDEGDAMDSWGQGTTVTVSS
VL: B2 VL
notes: as for B12
B19: HzTFPI4F36 HC-FR3, S77T (antibody, human IgG4 S228P, kappa, name in Kabat numbering, V domains shown)
VH: B18 VH with S78T, T97A
VL: B2 VL
notes: as for B12
B20: HzTFPI4F36 HC-G42E, G44R, S49A CDR2 (antibody, human IgG4 S228P, kappa, name in Kabat numbering, V domains shown)
VH: B2 VH with T40A
VL: B2 VL
notes: as for B12
B21: HzTFPI4F36 HC-G44R (antibody, human IgG4 S228P, kappa, name in Kabat numbering, V domains shown)
VH: B18 VH with G44R, S84N, S88A, M93V, T97A
VL: B2 VL
notes: as for B12
B22: HzTFPI4F36 HC-G44R, A60P, K64Q (antibody, human IgG4 S228P, kappa, name in Kabat numbering, V domains shown)
VH: B2 VH with T40A, E42G, A49S, F60Y
VL: B2 VL
notes: as for B12
B23: HzTFPI4F36 HC-K64Q (antibody, human IgG4 S228P, kappa, name in Kabat numbering, V domains shown)
VH: B18 VH with K65Q, S84N, S88A, M93V, T97A
VL: B2 VL
notes: as for B12
B24: HzTFPI4F36 HC-KABAT CDR2 (antibody, human IgG4 S228P, kappa, name in Kabat numbering, V domains shown)
VH: B2 VH with T40A, E42G, R44G, A49S
VL: B2 VL
notes: as for B12
B25: HzTFPI4F36 HC-Q3E (antibody, human IgG4 S228P, kappa, name in Kabat numbering)
heavy: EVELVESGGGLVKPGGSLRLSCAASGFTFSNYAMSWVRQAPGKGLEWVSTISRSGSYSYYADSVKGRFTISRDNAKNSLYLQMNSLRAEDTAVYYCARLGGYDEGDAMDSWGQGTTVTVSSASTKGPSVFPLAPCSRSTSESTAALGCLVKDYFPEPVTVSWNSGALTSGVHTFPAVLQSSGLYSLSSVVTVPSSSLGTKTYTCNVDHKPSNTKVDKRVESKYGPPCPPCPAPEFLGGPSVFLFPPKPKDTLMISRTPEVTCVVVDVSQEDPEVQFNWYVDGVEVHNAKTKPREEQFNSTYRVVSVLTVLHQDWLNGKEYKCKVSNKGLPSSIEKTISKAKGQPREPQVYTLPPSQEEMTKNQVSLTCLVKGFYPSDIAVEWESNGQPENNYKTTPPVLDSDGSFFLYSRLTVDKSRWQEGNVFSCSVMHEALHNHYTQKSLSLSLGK
light: B1 light
notes: Mutated CDR-grafted heavy chain with wild type CDR-grafted light chain; human kappa/IgG4(S241P)
B26: HzTFPI4F36 HC-S49A (antibody, human IgG4 S228P, kappa, name in Kabat numbering, V domains shown)
VH: B18 VH with S49A, S84N, S88A, M93V, T97A
VL: B2 VL
notes: as for B12
B27: HzTFPI4F36 HC-S77T (antibody, human IgG4 S228P, kappa, name in Kabat numbering, V domains shown)
VH: B18 VH with S78T, S84N, S88A, M93V, T97A
VL: B2 VL
notes: as for B12
B28: HzTFPI4F36 HC-Y59F (antibody, human IgG4 S228P, kappa, name in Kabat numbering, V domains shown)
VH: B18 VH with Y60F, S84N, S88A, M93V, T97A
VL: B2 VL
notes: as for B12
B29: HzTFPI4F36 HC-Y59F, A60P (antibody, human IgG4 S228P, kappa, name in Kabat numbering, V domains shown)
VH: B2 VH with T40A, E42G, R44G, A49S, Q65K
VL: B2 VL
notes: as for B12
B30: mouse/human chimera version of the anti-TFPI4F36 antibody (ChimTFPI4F36) (antibody, IgG4, V domains shown)
VH: B2 VH with Q3E, R19K, S78T, N84S, A88S, V93M, A97T, T116S
VL: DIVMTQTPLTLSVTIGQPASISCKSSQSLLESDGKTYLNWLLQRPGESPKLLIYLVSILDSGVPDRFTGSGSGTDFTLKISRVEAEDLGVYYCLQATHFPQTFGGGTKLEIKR
notes: also called Chimeric TFPI4F36; chimeric anti-TFPI4F36

What follows are binders tested against T1, recombinant full length human tissue factor pathway inhibitor (TFPI) (human, UniProt P10646 29-304) (assay: SPR (Biacore)).
T1 construct: also called TFPI1; human TFPI
From the text: The affinity analyses were done using SRP as described below.
(§1) These were followed by a direct binding kinetic procedure on selected mAb constructs, with the monoclonal antibody covalently coupled via free amine groups to the carboxymethylated dextrane membrane (CM5) on the sensor chip surface.

Binder	fold lower affinity than the original mouse TFPI4F36 antibody	Kd
B1	≥ 100 fold	
B2		~0.025 nM
B3		~0.03 nM

The binders below were run against T1, recombinant full length human tissue … (assay: SPR (Biacore), TFPI).

Binder	Kd
B2	0.026 nM
B4	0.093 nM
B5	0.039 nM

Each binder was assayed against T1, recombinant full length human tissue … (assay: cell-based or functional assay).

Binder	IC50, neutralization of TFPI inhibition of FXa
B2	12.6 nM

Target: T1, recombinant full length human tissue …
Experiment: cell-based or functional assay
Remark: another data set of the same source

Binder	IC50, neutralization of TFPI inhibition of FVIIa/TF/FX
B2	3.8 nM

Each binder was assayed against T1, recombinant full length human tissue … (assay: SPR (Biacore), recombinant human TFPI).

Binder	Kd
B6	0.63 nM
B7	> 0.03 nM
B8	17 nM
B9	0.64 nM
B10	7.8 nM
B11	> 0.03 nM

Target: T1, recombinant full length human tissue …
Experiment: SPR (Biacore), recombinant human TFPI
Remark: another data set of the same source

Binder	Kd
B2	0.026 nM
B12	2.2 nM
B13	2.7 nM
B14	0.88 nM
B15	> 0.03 nM
B16	1.3 nM
B17	5.3 nM
B18	4.1 nM
B19	7.7 nM
B4	0.093 nM
B5	0.039 nM
B20	> 0.03 nM
B21	2.3 nM
B22	0.03 nM
B23	2.5 nM
B24	0.9 nM
B25	5.8 nM
B26	3 nM
B27	1.5 nM
B28	5.5 nM
B29	2.3 nM

These binders were tested against T1, recombinant full length human tissue … (assay: SPR (Biacore), recombinant human TFPI over the mAb).
Method: Binding interaction analysis was obtained by Surface Plasmon Resonance in a Biacore 3000. Capture of the relevant monoclonal antibody at a fixed concentration was obtained with immobilised mouse anti-IgG. Different concentrations of TFPI were tested.
as §1

Binder	Kd	kon
B1	2.06 nM	1.07e+06 M⁻¹ s⁻¹
B3	0.0282 nM	4.7e+06 M⁻¹ s⁻¹
B30	0.0162 nM	8.88e+06 M⁻¹ s⁻¹

Each binder was assayed against T1, recombinant full length human tissue … (assay: SPR (Biacore T-100), mAb immobilised, full length human TFPI).
Method: (§2) Binding interaction analysis was obtained by Surface Plasmon Resonance in a Biacore T-100 instrument. Capture of the relevant monoclonal antibody at a fixed concentration was obtained by direct immobilization to a CM5 chip of the mAb to a level of 500-1000 RU in 10 mM sodium acetate pH 4.5-5.0. […] Running and dilution buffer: 10 mM HEPES, 150 mM, 0.005% p20, pH 7.4. Regeneration was obtained by 10 mM Glycine, pH 1.7. Determination of kinetic and binding constants (kₒₙ, koff, KD) was obtained assuming a 1:1 interaction of TFPI and the antibody of interest using the Biacore T100 evaluation software. […] Regeneration of the chip was obtained by 10 mM Glycine, pH 1.7.

Binder	Kd
B2	0.015 nM

What follows are binders tested against T2, human TFPI short form (1-161 amino acid residues) (human, UniProt P10646 29-189) (assay: SPR (Biacore T-100), mAb immobilised, TFPI161 (K1 and K2 domains)).
T2 construct: also called TFPI161; TFPI (1-161)
Method: as §2

Binder	Kd
B2	0.0455 nM

The binders below were run against T1, recombinant full length human tissue … (assay: SPR (Biacore T-100), mAb immobilised on CM5 chip, full length human TFPI, 1:1 model).
Method: as §2

Binder	Kd	koff	kon
B2	0.015 nM	3.58e-05 s⁻¹	2.39e+06 M⁻¹ s⁻¹
